Patent US10287317B2, “Proprotein convertase subtilisin kexin type 9 (PCSK9) allosteric binding ligands to modulate serum low density lipoprotein (LDL) levels” (SRX Cardio, LLC, priority 2013, dated 2019)
Where no end group is shown, it is not given here.

Assays:
[1] = target: normal PCSK9 (WT) (Homo sapiens, UniProt Q8NBP7); assay: Cellular diI-LDL uptake in HepG2 cells with WT PCSK9; assay type: cell-based; conditions: HepG2, WT 1.2 ug/ml, pre-incubated 3 hrs at 37 C, dose dependent manner (FIG. 6)
normal PCSK9 (WT), sequence (Q8NBP7 153-692): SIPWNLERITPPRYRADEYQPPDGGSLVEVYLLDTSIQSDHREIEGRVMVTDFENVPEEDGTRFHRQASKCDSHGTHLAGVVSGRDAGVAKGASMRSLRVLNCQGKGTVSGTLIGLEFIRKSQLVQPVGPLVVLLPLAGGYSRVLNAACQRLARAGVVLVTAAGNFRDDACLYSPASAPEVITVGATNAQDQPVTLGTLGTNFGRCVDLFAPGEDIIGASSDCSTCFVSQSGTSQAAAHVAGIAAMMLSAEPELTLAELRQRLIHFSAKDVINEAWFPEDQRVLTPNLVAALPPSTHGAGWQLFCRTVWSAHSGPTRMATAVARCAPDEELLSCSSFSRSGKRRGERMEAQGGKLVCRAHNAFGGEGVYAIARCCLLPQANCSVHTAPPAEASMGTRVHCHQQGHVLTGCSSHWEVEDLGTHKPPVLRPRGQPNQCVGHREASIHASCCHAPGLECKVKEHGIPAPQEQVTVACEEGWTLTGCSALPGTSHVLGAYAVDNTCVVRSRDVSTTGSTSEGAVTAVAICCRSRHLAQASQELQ
Method: (§1) After 16 h, dil-LDL (5 ug/ml) was added to the incubation mixtures. After 4 h, fluorescence was measured (Ex: 520 nm/Em: 575 nm; cutoff: 550 nm). Dil-LDL uptake is calculated as RFU corrected for the number of cells. The PCSK9 and −/+SRX55 [SEQ ID NO: 2] mixtures were pre-incubated for 3 hrs at 37 C prior to addition to the cells.
(§2) LDL internalization was measured by uptake of a fluorescently tagged LDL molecule (diI-LDL) in the absence of exogenous PCSK9 (Cnt), in the presence of exogenous PCSK9 (normal PCSK9=WT, D374Y mutant PCSK9=DY), or in the presence of PCSK9 and a tested peptide (indicated as SRX##, or SRX if a single peptide results is shown in a graph). […]
(§3) Peptide activity was assessed by culturing cells with: i) no SRX peptide/PCSK9 protein complex (control, Cnt); ii) PCSK9 protein; and iii) SRX peptide/PCSK9 complex. […]
(§4) Cells were cultured using one of the combinations of conditions described in the preceding paragraph for 16 hours. After 16 hours, a quantity of diI-LDL (Low density lipoprotein coupled with 1,1′-dioctadecyl-3,3,3′,3′-tetramethylindocarbocyanine perchlorate) needed to bring the media concentration to 5 ug/mL of diI-LDL was added to the culture well and cells continued to be cultured under these new conditions for 4 additional hours. […] Fluorescence of the diI-LDL in the specimens were quantified using excitation at 530 nm and resulting emission at 580 nm. […]

[2] = target: D374Y PCSK9 (DY) (Homo sapiens, UniProt Q8NBP7, D374Y); assay: Cellular diI-LDL uptake in FL-83B cells with D374Y PCSK9; assay type: cell-based, mouse; conditions: FL83B, D374Y 0.6 ug/ml, pre-incubated 3 hrs at 37 C, dose dependent manner (FIG. 7)
D374Y PCSK9 (DY), sequence (Q8NBP7 153-692 D374Y): as the sequence (Q8NBP7 153-692) above, with D222Y counted along it
Method: as §1, §2, §3, §4

[3] = target: PCSK9 GOF-D374Y protein (Homo sapiens, UniProt Q8NBP7, D374Y); assay: Cellular diI-LDL uptake in HepG2 cells with PCSK9 GOF-D374Y; assay type: cell-based
PCSK9 GOF-D374Y protein, sequence (Q8NBP7 153-692 D374Y): as the sequence (Q8NBP7 153-692) above, with D222Y counted along it
Method: […] After 16 h, dil-LDL (5 ug/ml) was added to the incubation mixtures. After 4 h, fluorescence was measured (Ex: 520 nm/Em: 575 nm; cutoff: 550 nm). Dil-LDL uptake is calculated as RFU corrected for the number of cells.
as §1, §2, §3
Cells were cultured using one of the combinations of conditions described in the preceding paragraph for 16 hours. […] Cell specimens were rinsed twice with PBS and then fluorescence measured with excitation at 360 nm and emission detected at 460 nm to measure DNA content. […]

Measured: LDL internalization (dil-LDL % uptake vs Cnt)

Val-Tyr-Val-Arg-Phe-Trp (VYVRFW; not fully specified (C-terminus); printed as Val-Tyr-Val-Arg-Phe-Trp) [Compound 1]
positively modulated (increased): [1] | [2] | [3]; HepG2, 2 μg/ml PCSK9 GOF-D374Y, dose dependent manner (FIG. 5) | [3]; HepG2, D374Y 0.6 ug/ml, pre-incubated 3 hrs at 37 C, dose dependent manner (FIG. 6)
